These results are taken from PMC4410877 (Biochemistry, 2009).

Ends that are not written are not given here.

In one series the test system is actin. Conditions: literature statement, no reference printed at this sentence; cited from earlier work.
The test system of a further series is cofilin. As to conditions: cited from earlier work.
The conditions of series [1]: cited from earlier work.
The conditions of series [2]: 10 °C; cited from earlier work.
In series [3] the target is T1, αTM1b_(1-19)Zip (1bNTD), unlabeled synthetic peptide (rat | yeast).
T1 chain: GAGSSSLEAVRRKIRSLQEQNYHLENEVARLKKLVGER
As to the kind of experiment: circular dichroism titration. In general terms: Circular dichroism is widely used to follow secondary structure.

In the case of “Cofilin: actin filament binding and severing protein”, in the series with actin, the “affinity of cofilin for the actin filament” value is “high affinity”. Take Tropomyosin: in the series with cofilin, the “inhibition of cofilin binding and severing” value is reported as “competitive inhibitor”.

As for “9aCTD: residues 251-284 of rat striated α-tropomyosin encoded by exon 8 and exon 9a with GCG at the N-terminus (GCGKSIDDLEDELYAQKLKYKAISEELDHALNDMTSI; not fully specified; UniProt P04692 251-284, looked up, fragment)”, the “TM of unfolding of 9aCTD” value in series [1] is ~ 25 °C. Also, the “helical content of 9aCTD” value in series [2] is reported as “greater than 75%”. Turning to GCGGSIDDLEEKVAHAKEENLSMHQMLHQTLLELNNM (also: disulfide cross-link between two chains through Cys2 (dimer)) [α-TM9d_(252-284) (9dCTD), disulfide cross-linked], in series [3], the Kd was less than 500 nM and the “stoichiometry N” value is 0.94 ± 0.03 molar ratio.

For orientation: Kd means the constant that tells how readily two partners part at equilibrium. Read a low Kd as a tighter complex. The term stoichiometry N denotes the number of molecules, sites or subunits per partner or assembly.
